Test [1] addresses 2-chloro-(ε-amino-Lys75)-[6-(4-N,N-diethylaminophenyl)-1,3,5-triazin-4-yl]calmodulin (TA-CaM) (UniProt P0DP23 2-149). The test is described as follows: competition with CBD for TA-CaM, fluorescence.
Test [2] has as its target calcium/calmodulin (CaM)-dependent protein kinase II (CaMKII) (UniProt P11275 1-478). The test is described as follows: cell-based or functional assay.
The target in another test is CaMKI. As to the kind of experiment: cell-based or functional assay.
The next test has as its target biotinylated CaM (UniProt P0DP23 2-149). The test is described as follows: slot blot with biotinylated CaM (FIG. 9E) and TA-CaM competition (FIG. 9G).

The term Kd denotes the free concentration of one partner at which half of the binding sites on the other are occupied at equilibrium, for simple one-to-one binding. A low value points to tighter binding.

Where only a bound is given, the exact number is not on record here.

Chain of calcium/calmodulin (CaM)-dependent protein kinase II (CaMKII) (P11275 whole entry): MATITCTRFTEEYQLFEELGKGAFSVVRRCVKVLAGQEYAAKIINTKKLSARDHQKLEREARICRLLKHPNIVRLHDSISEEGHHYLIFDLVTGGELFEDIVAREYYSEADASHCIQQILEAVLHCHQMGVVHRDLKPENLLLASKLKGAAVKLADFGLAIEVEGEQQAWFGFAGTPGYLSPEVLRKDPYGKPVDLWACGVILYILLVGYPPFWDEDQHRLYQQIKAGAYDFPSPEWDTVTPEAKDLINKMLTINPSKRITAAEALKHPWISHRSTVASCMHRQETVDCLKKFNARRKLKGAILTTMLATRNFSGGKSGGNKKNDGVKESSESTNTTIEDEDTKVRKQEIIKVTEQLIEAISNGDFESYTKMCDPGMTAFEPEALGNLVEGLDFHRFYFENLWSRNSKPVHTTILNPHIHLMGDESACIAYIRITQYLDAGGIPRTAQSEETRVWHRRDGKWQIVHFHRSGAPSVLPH

B1: antCN27 (peptide)
peptide: RQIKIWFQNRRMKWKKRPPKLGQIGRSKRVVIEDDRIDDVLK
notes: a final (K) of ant was replaced by the first K of the CN peptide in the fusion
As to B1, the Kd in test [1] is about 1 nM.

B2: ant (peptide)
peptide: RQIKIWFQNRRMKWK
notes: whether the free peptide had it is not clear; also called ant peptide; penetratin
As for B2, in test [1], the Kd was about 5 nM.

B3: CN21 (peptide)
peptide: KRPPKLGQIGRSKRVVIEDDR
For the molecule B3, the “IC50, phosphorylation of syntide 2 by CaMKII” value (“IC50, phosphorylation” for short) in test [2] was about 100 nM.

B4: CN19o (peptide)
peptide: KRAPKLGQIGRQKAVDIED
B4: the “IC50, CaMKI activity” value in the test with CaMKI was about 38000 nM. Further, in test [2], the “IC50, CaMKII activity” value was about 0.75 nM; the “fold increase of potency against CN19” value is over 125 fold; the “selectivity for CaMKII vs CaMKI” value is about 50000 fold.

B5: CN20 (peptide)
peptide: KRPPKLGQIGRSKRVVIEDD
As for B5, the “IC50, phosphorylation” value in test [2] is about 100 nM.

B6: CN19 R14A (peptide)
peptide: KRPPKLGQIGRSKAVVIED
In the case of B6, in test [2], the “IC50, CaMKII activity” value was under 10 nM and the “fold increase of potency against CN19 wild type” value was over 10 fold.

B7: CN19 (peptide)
peptide: KRPPKLGQIGRSKRVVIED
As for B7, the “IC50, CaMKI activity” value in the test with CaMKI was about 36000 nM. Further, in test [2], the “IC50, phosphorylation” value is about 100 nM.

B8: V16D mutant of CN19a2v (peptide)
peptide: KRAPKLGQIGRVKAVDIED
Take B8: the “IC50, CaMKII activity” value in test [2] was about 1 nM.

B9: CN27 (peptide)
peptide: KRPPKLGQIGRSKRVVIEDDRIDDVLK
notes: also called CaM-KIINtide
Regarding B9, the binding result with biotinylated CaM is listed as “no binding”.

B10: V12Q mutant of CN19a2v (peptide)
peptide: KRAPKLGQIGRQKAVVIED
As for B10, the “IC50, CaMKII activity” value in test [2] is about 1 nM.

B11: CN19a2v (peptide)
peptide: KRAPKLGQIGRVKAVVIED
Turning to B11, in the test with CaMKI, the “IC50, CaMKI activity” value was about 18000 nM. For the same molecule, in test [2], the “IC50, CaMKII activity towards syntide 2” value was about 20 nM and the “fold increase of potency against CN19” value is about 5 fold.
